From the DeepSol protein solubility set

assay: soluble on expression in E. coli; label from the status in PepcDB or PDB records

Sequence | soluble on expression in E. coli
TQAMEGLLHYINPAHAISLLSALNEERLKGQLCDVLLIVGDQKFRAHKNVLAASSEYFQSLFTNKENESQTVFQLDFCEPDAFDNVLNYIYSSSLFVEKSSLAAVQELGYSLGISFLTNIVSKTPQAPFPTCPNRKKVFVEDDENSSQKRSVIVCQSRNEAQGKTVSQNQPDVSHTSRPSPSIAVKANTNKPHVPKPIEPLHNLSLTEKSWPKDSSVVYAKSLEHSGSLDDPNRISLVKRNAVLPSKPLQDREAMDDKPGVSGQLPKGKALELALKRPRPPVLSVCSSSETPYLLKETNKGNGQGEDRNLLYYSKLGLVIPSSGSGSGNQSIDRSGPLVKSLLRRSLSMDSQVPVYSPSIDLKSSQGSSSVSSDAPGNVLCALSQKSSLKDCSEKTALDDRPQVLQPHRLRSFSASQSTDREGASPVTEVRIKTEPSSPLSDPSDIIRVTVGDAATTAAASSSSVTRDLSLKTEDDQKDMSRLPAKRRFQADRRLPFKKLKVNEHGSPVSEDNFEEGSSPTLLDADFPDSDLNKDEFGELEGTRPNKKFKCKHCLKIFRSTAGLHRHVNMYHNPEKPYACDICHKRFHTNFKVWTHCQTQHGIVKNPSPASSSHAVLDEKFQRKLIDIVREREIKKALIIKLRRGKPGFQGQSSSQAQQVIKRNLRSRAKGAYICTYCGKAYRFLSQFKQHIKMHPGEKPLGVNKVAKPKEHAPLASPVENKEVYQCRLCNAKLSSLLEQGSHERLCRNAAVCPYCSLRFFSPELKQEHESKCEYKKLTCLECMRTFKSSFSIWRHQVEVHNQNNMAPTENFSLPVLDHNGDVTGSSRPQSQPEPNKVNHIVTTKDDNVFSDSSEQVNFDSEDSSCLPEDLSLSKQLKIQVKEEPVEEAEEEAPEASTAPKEAGPSKEASLWPCEKCGKMFTVHKQLERHQELLCSVKPFICHVCNKAFRTNFRLWSHFQSHMSQASEESAHKESEVCPVPTNSPSPPPLPPPPPLPKIQPLEPDSPTGLSENPTPATEKLFVPQESDTLFYHAPPLSAITFKRQFMCKLCHRTFKTAFSLWSHEQTHN | soluble
LTEKQKRFADEYIKCGNATEAARLAGYSSKTANRIATENLSKPVIKGYIDKVLSELEEKRVMGYTEAMQLFTEIARGEMEEEVIVSNGDGFSVVTKSADINQRVSALKEIVKRHVAGGRDKLQEELIQAQIDKLRADT | not soluble
MSLKAAQYAGNKSFNVVDGAKVPPAEGEVCLQVGYTGICGTDMHIYHGVMDQRVSIPQIIGHEMSGTVVEVGAGVTDYTVGDRVVVRPLDYCGDCPACNAGHSHVCHNLKFMGIDSPGAFQSYWTVKARTLHALPDNVSLKQGALIEPLSVACHDVARTRLQAGEKALVIGGGPIGQLVALVAKSVGAEVMISEVSEARLKFAAERGIKTVNPVTDDIEAVVKEWTGGKGADAVFEVSGVAAAVETMTKVAAVRGRICMVAIHSQKPQVDLFQFFWKELELLGARVYESADFEHAIELVASGKIDVDSFISSVTSLNDIGTAFASMDNNPAGMKALVECNEGHHHHHH | soluble
MSGRRKGCSAATASSSSSSPPSRLPPLPGHARRPRRKRCLVPEVFCTRDLADLCVRRDYEGLRRYLRRFEGSCVSLGWPSQCIYVVGGEHSPHSLTEIDLEHCQNDFFGEFRALHLIGTVSHATCRYQVFVDAYGAVFAYDAQEDCLYELASDLAGFFAKGMIRCDPVHESICARLQPNVPLVHPDHRAELCRRSRASARGRYLRSLLAFRELLACEDTAARCAYVEAHREAQLTLIWPEKHSLVLRTARDLGLSASMLRRFQRSLYTREPVMPLGEIEGAEDKTFFHRVRILCGDTGTVYAALVGQDKLVRLARDLRGFVRVGLALLIDDFRYESIGPVDRSSLYEANPELRLPFKKRRLEHHHHHH | not soluble
MGSDKIHHHHHHMNQEQNDIAIRVSNLSKCYHIYDTPRDRLKQFILPRLHHLTGQTPRQYFREFWALRDVSFEVKKGETIGIIGRNGSGKSTLLQMICGTLNPTSGSITTYGRIAALLELGSGFNPEFTGRENVYMNASVLGLSQEETDARFDDIAAFADIGEFIEQPVKTYSSGMMVRLGFAVQAQVKPDILIVDEALAVGDAKFQAKCFDRLQQLKDGGTSILLVTHSSEQIVTHCSEAILLDGGDVIEHGEPRYVVNHYMDLLFGKERKSYSASAFSTESNSVEPTQDDNLSLNFIDDVFSSHANYNEHEYRWGDGTATILDFYLLTDNEPYPSVITSGQSVVLGVAVRFYEDLVRPILGITIKTKEGVTVYGVNSETLETDEIKVLGSKGTTALIKAEFICRLAPGDYFISLGLATRKGEEIVPHDRRYDAIYLQIAPVTKFFGLVDLGLKLSAQNTSL | not soluble
MGSDKIHHHHHHMNTLKKITNNISKVIIGKDESIELAAIALIAKGHILLEDVPGTGKTTLAKSLAKSVDAKFQRIQFTADTLPGDVIGLEYFNVKESDFKTRLGPIFANIVLVDEINRAVPRTQSSLLEVMEERTVTIAKQTHSLPEPFLVIATQNPLESAGTFPLPDAQLDRFLLTIRQGYPTREAEKEMMNRFQMNDPLETLHSIISSEEIITMQKRAREVLVGNDVQDYLLEIIEATRKHELIEIGVSPRGTLAFMRAIQARAILNERDYCTPDDIKQLAASICTHRLTLTIEGEMKTTKEQIMKEILHTIDVPVENVR | not soluble
HHHHHHTNEAYLAHERRELEAKRNQLRDEVDRTKTHMQDEAANDPNWFDITAQLWEFSQELRNRDREEKLIKKIEQTLKKVENED | soluble
MLLSKKSEYKTLSTVEHPQYIVFCDFDETYFPHTIDEQKQQDIYELEDYLEQKSKDGELIIGWVTGSSIESILDKMGRGKFRYFPHFIASDLGTEITYFSEHNFGQQDNKWNSRINEGFSKEKVEKLVKQLHENHNILLNPQTQLGKSRYKHNFYYQEQDEINDKKNLLAIEKICEEYGVSVNINRCNPLAGDPEDSYDVDFIPIGTGKNEIVTFMLEKYNLNTERAIAFGDSGNDVRMLQTVGNGYLLKNATQEAKNLHNLITDSEYSKGITNTLKKLIGFMRRKLEHHHHHH | soluble
MSLSIRLHIWGDYACFTRPEMKVERVSYDVMTPSAARGILEAIHWKPAIRWHIDRLHVLKPIRFQSIRRNEVGAKASASNAKSAMKKGSTEGLGIVVDENRQQRAAMVLTNVAYVIEAHFTMTEKAGPEDTPAKHLSMFNRRAAKGQCFHRPCLGTREFAAEFALLGENDPLPEAKPRLEVRDDDFGWMLHDIDFASGRNESHFFRAVMKDGVIEVPPFKSGEVVKEGHHHHHH | soluble
MSLLLPANEQRPVVDIFVEGRRISAREGETIAAALLNAGIVPFRRTPVSGQPRAPLCLMGVCFECLVEVDGAQNVQSCMVRVNAGMQVGLPTGARRAGDGEGHHHHHH | not soluble
MGSDKIHHHHHHMTLDNPVANKFSIAASQYKQHDVLQRITAKQLLDNAPLFGTLLDVGAGPGTSFNAFNDVEQVVAVDIAHGMLNQLTKQYPDYLPICSDAQALGLQSASIDSIYSNLALQWCQNLPEAFAEFHRVLRQNGECYLSVVVDGSLAELKTLGFRVNQFNSVSAIKAAFIASQDSPNDWLNIDIQVKSISVYFDDLRSLLYSIKGVGASFAQQGENNATHHHPLTKQQWQQRIALAETMRTDKGIPLTYQIAYIRAKRG | not soluble
MAHHHHHHMESINRNNNINKNEIDNKINNNNNMDVPIEGNEKSQEGDIIGQFGVGFYSSFVVSNKVEVFTRSYDNNSSKGYHWVSYGNGTFTLKEVDNIPKGTKIICHLKDSCKEFSNIQNVQKIVEKFSSFINFPVYVLKKKKILQT | soluble
MGSDKIHHHHHHMVIFTQVVECGSFSGAAIATGHSNSYISKTLNKLEARVGVRLLNRTTRSISLTPEGQVYYEQCQQLVLDAHDAVSLLTQSHIEPKGVLKISCPTSFAENHLQEVMSAFMHQYPEVNLVLDLNDRHVDLVQDGFDLVIRATDKLAESSLVCRKIYSCKAYTVASHDYLKRFGLPQSPEQLSEHQCICYSNLKQANKWIYSHSNGTDNQVEVKAKLLCNSASMELAMVLAGHGICRLPAFVMEKELQDNKLAILFNDYITPTIDVYAIYPSRKHLSPKVRCFIDLLVDKMPRSLL | not soluble
MSLKTVVVIGGGITGLSTMFYLEKLKKDYNIDLNLILIEKEEYLGGKIHSVEEKDFIMESGADSIVARNEHVMPLVKDLNLEDEMVYNETGISYIYSENMLHPIPSDTIFGIPMSVQSLFSSTLVSTKGKIVALKDFITKNKEFTKDTSLALFLESFLGKELVERQIAPVLSGVYSGKLNELTMASTLPYLLDYKNKYGSIIKGFEENKKQFQSAGNKKFVSFKGGLSTIINRLEEVLTETVVKKGVITTAVSKQEDRYEISFANHETIQADYVVLAAPHDIAQTLLQSNELNEQFNTFKNSSLISIYLGFDILDEQLPADGTGFIVTENSDLHCDACTWTSRKWKHTSGKQKLLVRMFYKSTNPVYETIKNYSEEELVRVALYDIEKSLGIKGEPEVVEVTNWKDLMPKYHLEHNQAVQALQEKMTNLYPNVYLAGASYYGVGIGACIGNGKNIANEIMDTLNKEGHHHHHH | soluble
MQHLDLQVVRKALKWSVGGERVWFCTVLTTYGSAPRAPGSLLAVNASGEWIGSLSGGCVEDDFLERVAAGGFPDPAVIVRYGEGDDPNSNIRLPCGGILDVLVENLAPDCDVQAHLRELESALLGQRRLLREVELGSGARSLRDDSSHGPRAERDGECVRLRVGAAQRLLLAGYSSVAHACAEFGKGLGFEVILCDPREEALRGVVLEGIEIRRELPSLFIADGGCHADTAVVALTHDPKIDDLAMLEAVRTEAFYIGVMGSRATSEKRFERLRRIGGLGDAELARIHAPIGLNLGSKTPAEIALAVLADILRIRNGIPRERL | not soluble
MKIISKEFTVKTRSRFDSIDITEQVSEAIKGINNGIAHVIVKHTTCAIIINEAESGLMKDFLNWAKKLVPPDGEFEHNIIDNNGHAHVISAIIGNSRVVPIIEGKLDLGTWQRIILLEFDGPRTRTVLVKSMGE | soluble
MDGAQPKTNFFERLIARLAREPDSAEDVLNLLRQAHEQEVFDADTLTRLEKVLDFAELEVRDAMITRSRMNVLKENDSIERITAYVIDTAHSRFPVIGEDKDEVLGILHAKDLLKYMFNPEQFHLKSVLRPAVFVPEGKSLTALLKEFREQRNHMAIVIDEYGGTSGLVTFEDIIEQIVGDIEDEFD | soluble
MGSDKIHHHHHHVNGLPLVELSGDAYTQGWQHGRALREAIAANLRIYMTRFERELRIPPDEVWRRALRYAAVIAEQNQDYAAGMRGIAEGAGVDLAAIAALNVRYELFYQFFREYERGTGKPDGCTAFALLPSETDNGHLLVGENWDWIQGVRGAILRTIAPDGLRTLAFTEAGIFGGKIGLNAAGLALLINGLSSTGDDWASLRRPFHVRCYEILQARSLTEAQAVITSEERAGSANFLLAQVPDRVVNIEAAPAALAISGCTNGCLVHANHFTDPAALGIVERQIERYPHSYWRQERLRSLLASRPQSLAQVQAALRDHEQFPYSVCFHIDPADPPDEYYETVASVIMDVTAGVLYATDGPPCEHAYVRYELEVAR | not soluble
MQSVTPTSQYLKALNEGSHQPDDVQKEAVSRLEIIYQELINSRPPAPRTSGLMARVGKLWGKREDTKHTPVRGLYMWGGVGRGKTWLMDLFYQSLPGERKQRLHFHRFMLRVHEELTALQGQTDPLEIIADRFKAETDVLCFDEFFVSDITDAMLLGGLMKALFTRGITLVATSNIPPDELYRNGLQRARFLPAIDAIKQHCDVMNVDAGVDYRLRTLTQAHLWLSPLNDETRAQMDKLWLALAGVKRENSPTLEINHRPLATMGVENQTLAVSFTTLCVDARSQHDYIALSRLFHTVMLFDVPVMTRLMESEARRFIALVDEFYERHVKLVVSAEVPLYEIYQGERLKFEFQRCLSRLQEMQSEEYLKREHLAGLEHHHHHH | soluble
